The text below walks through data of PMC4108184.

Substrate in data set [1]: O=C1O[C@H](COP(=O)(O)O)[C@H](O)[C@H]1O
Put plainly: purified protein. Particulars: 2.5 mM Bicine pH 8.3, 0.2 M NaCl, zinc enzyme.

Substrate in data set [2]: O=C1O[C@@H](COP(=O)(O)O)[C@H](O)[C@H]1O
Put plainly: purified protein. The conditions noted are these: 2.5 mM Bicine pH 8.3, 0.2 M NaCl, zinc enzyme.

Broadly, the Km is the concentration of substrate that gives half-maximal velocity. The term kcat denotes the maximal rate divided by the concentration of active sites. Broadly, the kcat/Km is the turnover number divided by the Michaelis constant.

B1: Mag6390 (MAG_6390) (Mycoplasmopsis agalactiae PG2) (protein)
chain: MAKDKFVRTVLGDVPAESIGITDCHDHLIKNGGPEMHEHPDFLMIDVEAAKKEVQEYVDHGGKTIVTMDPPNVGRDVYRMLEIAEAFKGKANIVMSTGFHKAAFYDKYSSWLACVPTDDIVKMMVAEVEEGMDEYNYNGPVVKRSKAKAGIIKAGTGYAAIDRLELKALEVAARTSITTGCPILVHTQLGTMALEVAQHLIGFGANPRKIQLSHLNKNPDRYYYEKIIKETGVTICFDGPDRVKYYPDSLLADHIKYLVDKGLQKHITLSLDAGRILYQRNYGLTKGKETFGLSYLFERFIPLLKQVGVSQEAIDDILINNPREILAFDEPRVYDASKVSSEVVQLKKDLKLL
Take B1: the Km in the data set “purified protein [1]” is 900 ± 100 µM. Further, in the data set “purified protein [2]”, the Km turned out to be 660 ± 60 µM, the kcat came out at 8.7 ± 0.3 s⁻¹ and the kcat/Km was 13000 ± 1000 M⁻¹ s⁻¹.

B2: Ms0025 (MS53_0025) (Mycoplasmopsis synoviae 53) (protein)
chain: MENKFARTVLGDIPVEKLGITDCHDHFIKNGGPEVEEHIDFLMLNVDASIKEFKEFIDRGGSTIVTMDPPNVGRDVLKTLEIANAVKNLGGNVIMSTGFHKAKFYDKYSSWLAVVPTEEIVKMCVAEIEEGMDEYNYNGPVVKRSKAKAGIIKAGTGYGAIDRLELKALEVAARTSILTGCPILVHTQLGTMALEVAKHLIGFGANPDKIQISHLNKNPDKYYYEKVIKETGVTLCFDGPDRVKYYPDSLLAENIKYLVDKGLQKHITLSLDAGRILYQRNYGLTKGKQTFGLAYLFDRFLPLLKQVGVSKEAIFDILVNNPKRVLAFDEKRNFDPLKVSKEVLELKKELNLN
Turning to B2, in the data set “purified protein [1]”, the Km worked out at 500 ± 40 µM, the turnover number (kcat) came to 23.4 ± 0.8 s⁻¹ and the kcat/Km amounted to 47000 ± 4000 M⁻¹ s⁻¹. In addition, in the data set “purified protein [2]”, the Km came out at 300 ± 20 µM.
